From publication PMC10542344 (Communications Biology, 2023)

How the values were obtained:
[1] = biological target: T1, human IL-17A (recombinant) (human, UniProt Q16552); test: SPR; Biacore T100, CM5 chip; tested antibody captured on anti-human IgG to about 500 RU; IL-17A analyte in PBS 0.05% tween, two- or three-fold dilutions, multi-cycle kinetics; settings: both partners purified
T1 construct: human interleukin-17A; also called hIL-17A; source: cell assay: recombinant human IL-17A (Novartis Basel, Switzerland)

[2] = biological target: T1, human IL-17A (recombinant); test: cell-based or functional assay
[3] = biological target: T2, insulin (Homo sapiens (assumed), UniProt P01308); test: ELISA; polyspecificity assay; plates coated with 5 μg/ml antigen, blocked with PBS 0.5% BSA; 100 nM antibody 1 h at RT; anti-human Fc-HRP; settings: both partners purified
T2 construct: insulin B chain; insulin A chain

[4] = biological target: T3, human IL-2 (Homo sapiens, UniProt P60568); test: as above; settings: both partners purified
T3 construct: human interleukin-2; also called hIL-2

[5] = biological target: T4, hTNFR2 (Homo sapiens, UniProt P20333); test: as above; settings: both partners purified
T4 construct: human TNF receptor 2

[6] = biological target: T5, BSA (Bos taurus, UniProt P02769); test: as above; settings: both partners purified
T5 construct: bovine serum albumin, printed only as BSA; a BSA coating is not described

[7] = biological target: T6, recombinant human IL-1β (Homo sapiens); test: crystal structure; AAL160 Fab with a 1.5-fold excess of recombinant human IL-1β, complex purified by SEC; 3.30 Å; settings: both partners purified
T6 construct: human interleukin-1 beta; also called IL-1b

[8] = biological target: T7, IL-1β (used in the yeast display FACS analysis) (Homo sapiens, UniProt P01584); test: flow cytometry on cells; scFv displayed on yeast EBY-100; incubated with soluble antigen (biotinylated human IL-17A in PBS 0.1% BSA, 1 h), labelled with anti-Myc-FITC (expression) and streptavidin-APC (binding); settings: one partner purified
T7 construct: interleukin-1 beta; Species is said only of the IL-1β of the crystal (human)

[9] = biological target: T8, biotinylated human IL-17A (Homo sapiens, UniProt Q16552, biotin (site not stated)); test: as above; settings: one partner purified
T8 construct: human interleukin-17A; also called hIL-17A; biotinylated IL-17A
T8 sequence (Q16552 24-155): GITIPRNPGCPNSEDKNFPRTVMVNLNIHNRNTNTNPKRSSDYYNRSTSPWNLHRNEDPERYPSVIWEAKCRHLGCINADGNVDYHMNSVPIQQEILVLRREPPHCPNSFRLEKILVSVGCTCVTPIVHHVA

T5 sequence (P02769 25-607): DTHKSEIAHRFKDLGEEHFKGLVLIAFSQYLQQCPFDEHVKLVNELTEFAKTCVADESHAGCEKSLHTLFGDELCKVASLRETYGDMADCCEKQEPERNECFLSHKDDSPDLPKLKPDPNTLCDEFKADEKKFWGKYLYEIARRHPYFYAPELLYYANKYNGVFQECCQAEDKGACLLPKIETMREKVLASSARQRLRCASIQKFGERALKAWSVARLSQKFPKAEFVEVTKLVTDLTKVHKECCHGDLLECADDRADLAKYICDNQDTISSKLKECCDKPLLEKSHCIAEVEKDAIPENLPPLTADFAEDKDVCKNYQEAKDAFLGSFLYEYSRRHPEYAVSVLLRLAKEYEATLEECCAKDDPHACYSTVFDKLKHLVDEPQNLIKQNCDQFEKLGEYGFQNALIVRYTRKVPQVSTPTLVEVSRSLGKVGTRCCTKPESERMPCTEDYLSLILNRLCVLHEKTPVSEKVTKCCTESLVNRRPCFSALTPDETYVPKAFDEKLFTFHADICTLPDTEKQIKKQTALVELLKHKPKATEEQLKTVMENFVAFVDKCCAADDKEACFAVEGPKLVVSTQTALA
T2 sequence (P01308 whole entry, looked up): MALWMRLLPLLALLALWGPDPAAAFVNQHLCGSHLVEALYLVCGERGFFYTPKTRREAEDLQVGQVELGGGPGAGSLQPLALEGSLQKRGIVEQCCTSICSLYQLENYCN
T3 sequence (P60568 21-153): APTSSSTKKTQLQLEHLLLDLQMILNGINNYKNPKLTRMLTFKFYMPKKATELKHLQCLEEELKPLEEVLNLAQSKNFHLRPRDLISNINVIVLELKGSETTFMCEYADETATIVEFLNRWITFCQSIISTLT
T4 sequence (P20333 23-461): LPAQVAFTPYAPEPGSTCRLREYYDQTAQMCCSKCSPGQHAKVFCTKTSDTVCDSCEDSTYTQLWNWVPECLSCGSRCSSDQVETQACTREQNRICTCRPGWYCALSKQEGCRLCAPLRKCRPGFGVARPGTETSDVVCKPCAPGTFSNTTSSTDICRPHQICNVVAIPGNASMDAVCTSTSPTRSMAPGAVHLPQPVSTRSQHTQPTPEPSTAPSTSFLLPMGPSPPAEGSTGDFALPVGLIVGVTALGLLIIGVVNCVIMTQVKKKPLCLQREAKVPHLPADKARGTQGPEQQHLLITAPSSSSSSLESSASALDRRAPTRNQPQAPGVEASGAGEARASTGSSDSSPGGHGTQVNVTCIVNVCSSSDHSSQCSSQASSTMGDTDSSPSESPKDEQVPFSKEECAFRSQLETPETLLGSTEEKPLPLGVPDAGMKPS
T1 sequence (Q16552 24-155): as the sequence (Q16552 24-155) above

Row | Kd [1] [nM] | IC50 of inhibition of IL-17A dependent IL-6 secretion by BJ fibroblasts (1 nM IL-17A; blocks IL-17A binding to IL-17RA on the cells) [2] [nM] | binding result [3] | binding result [4] | binding result [5] | binding result [6] | binding result [7] | binding result [8] | binding result [9] | Binder
1 | 0.75 | 4.8 | no binding (tested: 100 nM antibody) | no binding (tested: 100 nM antibody) | no binding (tested: 100 nM antibody) | no binding (tested: 100 nM antibody) | – | – | – | BDG11.001 (clone 11.4C_11.001 as soluble human IgG1) (antibody, V domains shown, as the VH of m6 (clone 11.4C_11.001); the same heavy chain stands in 11.003 (PDB 7Z2M); changes are against the VH of AAL160; human IgG1 heavy-chain constant region, from the plasmid pSF-CMV-HuIgG1_HC; as the VL of m6 (clone 11.4C_11.001); has W30, Y93, W94; the light chain of 11.003 in PDB 7Z2M differs from it at position 30 (Phe for Trp); as in the light chain of 11.003 in PDB 7Z2M; IgG1; also …) VH: EVQLVQSGAEVKKPGESLKISCKGSGYSFTSYWIGWVRQMPGKGLEWMGIIYPSDSDTRYSPSFQGQVTISADKSISTAYLQWSSLKASDTAMYYCARYPNYGAFDIWGQGTMVTVSS VL: EIVLTQSPATLSLSPGERATLSCRASQSVWSYLAWYQQKPGQAPRLLIYDASNRATGIPARFSGSGSGTDFTLTISSLEPEDFAVYYCQQYFYWGWPFGQGTKLEIK
2 | – | – | – | – | – | – | binds | – | – | AAL160 Fab (Fab, V domains shown, Fab heavy-chain fragment of AAL160 after papain digestion; light chain of AAL160; also called parent AAL160 Fab; source: papain digestion of AAL160 at 37 °C, Fab purified over Protein A Sepharose Fast Flow) VH: EVQLVQSGAEVKKPGESLKISCKGSGYSFTSYWIGWVRQMPGKGLEWMGIIYPSDSDTRYSPSFQGQVTISADKSISTAYLQWSSLKASDTAMYYCARYTNWDAFDIWGQGTMVTVSS VL: EIVLTQSPATLSLSPGERATLSCRASQSVSSYLAWYQQKPGQAPRLLIYDASNRATGIPARFSGSGSGTDFTLTISSLEPEDFAVYYCQQRSNWMFPFGQGTKLEIK
3 | – | 163 | no binding (tested: 100 nM antibody) | no binding (tested: 100 nM antibody) | no binding (tested: 100 nM antibody) | no binding (tested: 100 nM antibody) | – | – | – | BDG11.004 (human IgG1) (antibody, V domains shown, as the VH of m7 (BDG11.001); human IgG1 heavy-chain constant region, from the plasmid pSF-CMV-HuIgG1_HC; as the VL of m7 (BDG11.001) with one substitution; light-chain numbering; as in the light chain of 11.003 in PDB 7Z2M; IgG1; single mutant of BDG11.001; source: Expi-CHO, transfected, purified from the supernatant (protein A beads); copies: 2 + 2) VH: EVQLVQSGAEVKKPGESLKISCKGSGYSFTSYWIGWVRQMPGKGLEWMGIIYPSDSDTRYSPSFQGQVTISADKSISTAYLQWSSLKASDTAMYYCARYPNYGAFDIWGQGTMVTVSS VL: EIVLTQSPATLSLSPGERATLSCRASQSVSSYLAWYQQKPGQAPRLLIYDASNRATGIPARFSGSGSGTDFTLTISSLEPEDFAVYYCQQYFYWGWPFGQGTKLEIK
4 | – | – | – | – | – | – | – | binds | no binding | AAL160 scFv displayed on yeast (scFv, V domains shown, VH of AAL160; also held by the deposited AAL160 Fab structures; three repeats of the G4S linker between VH and VL; VL of AAL160; scFv in heavy to light-chain orientation; VH 99% identical to IGHV5-51*01, VL 100% identical to IGKV3-11*01; also called template antibody; anti-IL-1β antibody; source: yeast surface display, EBY-100, induced with galactose) VH: EVQLVQSGAEVKKPGESLKISCKGSGYSFTSYWIGWVRQMPGKGLEWMGIIYPSDSDTRYSPSFQGQVTISADKSISTAYLQWSSLKASDTAMYYCARYTNWDAFDIWGQGTMVTVSS VL: EIVLTQSPATLSLSPGERATLSCRASQSVSSYLAWYQQKPGQAPRLLIYDASNRATGIPARFSGSGSGTDFTLTISSLEPEDFAVYYCQQRSNWMFPFGQGTKLEIK
5 | – | 286 | no binding (tested: 100 nM antibody) | no binding (tested: 100 nM antibody) | no binding (tested: 100 nM antibody) | no binding (tested: 100 nM antibody) | – | – | – | BDG11.007 (human IgG1) (antibody, V domains shown, as the VH of m7 (BDG11.001); human IgG1 heavy-chain constant region, from the plasmid pSF-CMV-HuIgG1_HC; as the VL of m7 (BDG11.001) with one substitution; light-chain numbering; as in the light chain of 11.003 in PDB 7Z2M; IgG1; single mutant of BDG11.001; source: Expi-CHO, transfected, purified from the supernatant (protein A beads); copies: 2 + 2) VH: EVQLVQSGAEVKKPGESLKISCKGSGYSFTSYWIGWVRQMPGKGLEWMGIIYPSDSDTRYSPSFQGQVTISADKSISTAYLQWSSLKASDTAMYYCARYPNYGAFDIWGQGTMVTVSS VL: EIVLTQSPATLSLSPGERATLSCRASQSVWSYLAWYQQKPGQAPRLLIYDASNRATGIPARFSGSGSGTDFTLTISSLEPEDFAVYYCQQYFNWGWPFGQGTKLEIK
6 | – | 33.9 | no binding (tested: 100 nM antibody) | no binding (tested: 100 nM antibody) | no binding (tested: 100 nM antibody) | no binding (tested: 100 nM antibody) | – | – | – | BDG11.003 (human IgG1) (antibody, V domains shown, as the VH of m7 (BDG11.001); human IgG1 heavy-chain constant region, from the plasmid pSF-CMV-HuIgG1_HC; as the VL of m7 (BDG11.001) with W30F; that 11.003 is the W30F variant follows from the sentence that 11.003 has Phe30 in L1 where AAL160 has Ser; light-chain numbering; IgG1; seven mutations against AAL160; source: Expi-CHO, transfected, purified from the supernatant (protein A beads); …) VH: EVQLVQSGAEVKKPGESLKISCKGSGYSFTSYWIGWVRQMPGKGLEWMGIIYPSDSDTRYSPSFQGQVTISADKSISTAYLQWSSLKASDTAMYYCARYPNYGAFDIWGQGTMVTVSS VL: EIVLTQSPATLSLSPGERATLSCRASQSVFSYLAWYQQKPGQAPRLLIYDASNRATGIPARFSGSGSGTDFTLTISSLEPEDFAVYYCQQYFYWGWPFGQGTKLEIK
7 | – | – | – | – | – | – | – | no binding | binds | clone 11.1_C5 scFv displayed on yeast (scFv, V domains shown, as the VH of m1 (AAL160) with changes; three repeats of the G4S linker between VH and VL; as the VL of m1 (AAL160) with changes; First-generation clone from library A_11.1; source: yeast surface display, EBY-100, induced with galactose) VH: EVQLVQSGAEVKKPGESLKISCKGSGYSFTSYWIGWVRQMPGKGLEWMGIIYPSDSDTRYSPSFQGQVTISADKSISTAYLQWSSLKASDTAMYYCARYTNYGNFDIWGQGTMVTVSS VL: EIVLTQSPATLSLSPGERATLSCRASQSVWWYLAWYQQKPGQAPRLLIYDASNRATGIPARFSGSGSGTDFTLTISSLEPEDFAVYYCQQGFYWPWPFGQGTKLEIK
8 | – | – | – | – | – | – | – | no binding | binds | clone 11.1_C3 scFv displayed on yeast (scFv, V domains shown, as the VH of m1 (AAL160) with changes in CDR H3; numbers count on the scFv; three repeats of the G4S linker between VH and VL; as the VL of m1 (AAL160) with changes in CDR L1 and L3; First-generation clone from library A_11.1; nine mutations against AAL160, eight in H3 and L3 and one in L1; source: yeast surface display, EBY-100, induced with galactose) VH: EVQLVQSGAEVKKPGESLKISCKGSGYSFTSYWIGWVRQMPGKGLEWMGIIYPSDSDTRYSPSFQGQVTISADKSISTAYLQWSSLKASDTAMYYCARYTNYGNFDIWGQGTMVTVSS VL: EIVLTQSPATLSLSPGERATLSCRASQSVWSYLAWYQQKPGQAPRLLIYDASNRATGIPARFSGSGSGTDFTLTISSLEPEDFAVYYCQQGFYWPWPFGQGTKLEIK
9 | – | – | – | – | – | – | – | – | binds | clone 11.4_C13 scFv displayed on yeast (scFv, V domains shown, as the VH of m1 (AAL160) with changes; has no T100P; three repeats of the G4S linker between VH and VL; as the VL of m1 (AAL160) with changes; source: yeast surface display, EBY-100, induced with galactose) VH: EVQLVQSGAEVKKPGESLKISCKGSGYSFTSYWIGWVRQMPGKGLEWMGIIYPSDSDTRYSPSFQGQVTISADKSISTAYLQWSSLKASDTAMYYCARYTNYEAFDIWGQGTMVTVSS VL: EIVLTQSPATLSLSPGERATLSCRASQSVWSYLAWYQQKPGQAPRLLIYDASNRATGIPARFSGSGSGTDFTLTISSLEPEDFAVYYCQQSFYWPFPFGQGTKLEIK
10 | – | – | – | – | – | – | – | – | binds | clone 11.4_C12 scFv displayed on yeast (scFv, V domains shown, as the VH of m1 (AAL160) with changes in CDR H3; three repeats of the G4S linker between VH and VL; as the VL of m1 (AAL160) with changes; has W30, Y93 and W94 (light-chain numbering); also called 114_R5_C12; source: yeast surface display, EBY-100, induced at 37 to 40 °C) VH: EVQLVQSGAEVKKPGESLKISCKGSGYSFTSYWIGWVRQMPGKGLEWMGIIYPSDSDTRYSPSFQGQVTISADKSISTAYLQWSSLKASDTAMYYCARYPNYGAFDIWGQGTMVTVSS VL: EIVLTQSPATLSLSPGERATLSCRASQSVWSYLAWYQQKPGQAPRLLIYDASNRATGIPARFSGSGSGTDFTLTISSLEPEDFAVYYCQQYFYWSWPFGQGTKLEIK
11 | – | 50.5 | no binding (tested: 100 nM antibody) | no binding (tested: 100 nM antibody) | no binding (tested: 100 nM antibody) | no binding (tested: 100 nM antibody) | – | – | – | BDG11.006 (human IgG1) (antibody, V domains shown, as the VH of m7 (BDG11.001); human IgG1 heavy-chain constant region, from the plasmid pSF-CMV-HuIgG1_HC; as the VL of m7 (BDG11.001) with one substitution; light-chain numbering; as in the light chain of 11.003 in PDB 7Z2M; IgG1; single mutant of BDG11.001; source: Expi-CHO, transfected, purified from the supernatant (protein A beads); copies: 2 + 2) VH: EVQLVQSGAEVKKPGESLKISCKGSGYSFTSYWIGWVRQMPGKGLEWMGIIYPSDSDTRYSPSFQGQVTISADKSISTAYLQWSSLKASDTAMYYCARYPNYGAFDIWGQGTMVTVSS VL: EIVLTQSPATLSLSPGERATLSCRASQSVWSYLAWYQQKPGQAPRLLIYDASNRATGIPARFSGSGSGTDFTLTISSLEPEDFAVYYCQQYFYNGWPFGQGTKLEIK
